Reference: US20080138790A1 (priority 2004, published 2008)
Where two headings read alike, the source gives them in different places.

Assays:
rat = details: cited from earlier work
[1] = Percentage Met-Hb over time of stroma free hemoglobin with/without solvent-detergent; assay type: physicochemical
Method: (§1) The solvent-detergent treatment was performed at a concentration of 1% Tween 80 […] and 0.3% Tri-N-Butyl Phosphate […]. […] All testing was performed at neutral pH in phosphate buffered saline.
(§2) After treatment, the mixture was centrifuged at 8,000 rpm (4,600 g) for 6 minutes at room temperature.

[2] = Total Hb over time of stroma free hemoglobin with/without solvent-detergent; assay type: physicochemical
Method: as §1, §2

[3] = in vivo; cited from earlier work

In the case of CCCO [1-Propanol], the “LD50 (oral-rat)” value (rat; in vivo, po) is given as 1900 mg/kg.
In the case of CCC(C)=O [2-Butanone], the “LD50 (oral-rat)” value (rat; oral) is listed as 2700 mg/kg.
In the case of CC(C)O [2-Propanol], the “LD50 (oral-rat)” value (rat; in vivo, po) is given as 5000 mg/kg.
In the case of CC#N [Acetonitrile], the “LD50 (oral-rat)” value (rat; oral) is listed as 3800 mg/kg.
In the case of COCCOC [Dimethoxy- ethane (glyme), Dimethoxy- ethane], the “LD50 (oral-rat)” value (rat; oral) is listed as 10000 mg/kg.
For CCOC(C)=O [Ethyl acetate], the “LD50 (oral-rat)” value (rat; in vivo, po) is given as 11000 mg/kg.
In the case of CO [Methanol], the “LD50 (oral-rat)” value (rat; oral) is given as 5600 mg/kg.
With “SFH: stroma free hemoglobin prepared as in Example 1, 8.6-9.0 g % in PBS” the “Percentage Met-Hb” value ([1]; 2-6° C., 0 hrs) was 2.15%, the “Percentage Met-Hb” value ([1]; 2-6° C., 1 hrs) was 2.2% and the “Percentage Met-Hb” value ([1]; 2-6° C., 2 hrs) was 2.25%. The “Percentage Met-Hb” value ([1]; 2-6° C., 3 hrs) was 2.15%, the “Percentage Met-Hb” value ([1]; 2-6° C., 4 hrs) was 2.1% and the “Percentage Met-Hb” value ([1]; 2-6° C., 5 hrs) was 2.25%. For the same compound, the “Percentage Met-Hb” value ([1]; 21-23° C., 0 hrs) was 2.2%, the “Percentage Met-Hb” value ([1]; 21-23° C., 1 hrs) was 2.4% and the “Percentage Met-Hb” value ([1]; 21-23° C., 2 hrs) was 2.45%. For the same compound, the “Percentage Met-Hb” value ([1]; 21-23° C., 3 hrs) was 2.45%, the “Percentage Met-Hb” value ([1]; 21-23° C., 4 hrs) was 2.6% and the “Percentage Met-Hb” value ([1]; 21-23° C., 5 hrs) was 2.8%. The “Total Hb” value ([2]; 2-6° C., 0 hrs) was 8.6 g %, the “Total Hb” value ([2]; 2-6° C., 1 hrs) was 8.5 g % and the “Total Hb” value ([2]; 2-6° C., 2 hrs) was 8.55 g %. The “Total Hb” value ([2]; 2-6° C., 3 hrs) was 8.65 g %, the “Total Hb” value ([2]; 2-6° C., 4 hrs) was 8.65 g % and the “Total Hb” value ([2]; 2-6° C., 5 hrs) was 8.55 g %. The “Total Hb” value ([2]; 21-23° C., 0 hrs) was 8.5 g %, the “Total Hb” value ([2]; 21-23° C., 1 hrs) was 8.55 g % and the “Total Hb” value ([2]; 21-23° C., 2 hrs) was 8.55 g %. For the same compound, the “Total Hb” value ([2]; 21-23° C., 3 hrs) was 8.65 g %, the “Total Hb” value ([2]; 21-23° C., 4 hrs) was 8.6 g % and the “Total Hb” value ([2]; 21-23° C., 5 hrs) was 8.55 g %.
For “conjugate of hemoglobin (with a molecular weight of 64,000) and dextran (having a molecular weight of 20,000): hemoglobin conjugated to dextran of molecular weight 20,000, reported by Blumenstein et al.”, the “clearance from the circulation and through the kidneys” value [3] is listed as “cleared slowly from the circulation and negligibly through the kidneys”.
